Measurements taken from PMC4760936 (PLoS ONE, 2016).

B1: sdAb D9 (VHH)
VHH: EVQLQASGGGLAQAGDSLRLSCAASIRTFGSYAMGWFRQAPGKEREFVAAISWSGGDTYADSAKGRFTISRDNAKNMMYLQMNSLAPEDTAVYFCAIVEAKYYISKDARDYGYWGQGTQVFVSS
notes: also called Class C exemplar
B2: sdAb E2 (VHH)
VHH: EVQLQASGGGLVQAGGSLRLTCAASGRTFGSYAMGWFRQAPGKEREFVAAISWSGGDTYADSVKGRFTISRDNAKNTVYLQMNSLAPEDTAVYSCAAVGARYYISKDAKDYGYWGQGTQVTVSS
notes: also called Class A exemplar

Target: staphylococcal enterotoxin B (Staphylococcus aureus, strain , UniProt P01552)
Sequence (P01552 28-266): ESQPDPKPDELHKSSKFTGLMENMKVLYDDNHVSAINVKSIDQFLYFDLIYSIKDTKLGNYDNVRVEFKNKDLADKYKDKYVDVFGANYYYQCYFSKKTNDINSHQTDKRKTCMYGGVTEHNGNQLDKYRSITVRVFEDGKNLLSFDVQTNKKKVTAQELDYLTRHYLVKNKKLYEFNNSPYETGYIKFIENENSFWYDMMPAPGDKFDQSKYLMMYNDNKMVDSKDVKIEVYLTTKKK
Assay: SPR; ProteOn XPR36; […] (10 mM acetate pH 5.0); […]; Langmuir model
Settings: both partners purified

Binder | Kd | koff | kon
B1 | 0.11 nM | 0.00028 s⁻¹ | 2.5e+06 M⁻¹ s⁻¹
B2 | 0.27 nM | 0.0035 s⁻¹ | 1.3e+07 M⁻¹ s⁻¹
